According to patent US20170137467A1 (CHROMOTEK, published 2017):

How the values were obtained:
Experiment in all cases: peptide library pulldown on immobilized Nb, LC-MS of supernatant; ratio vs GFP-Nb control (1 = not captured, 0 = captured)
BC2T H9F library peptide = target: T1, BC2T H9F library peptide (human)
T1 peptide: Ac-PDRKAAVSFWQQ-NH2
Method in brief: (§1)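 Unbound peptide left in supernatant after 1 h pulldown in PBS/0.01% CHAPS measured by reversed-phase LC-MS (8–30% eluent B gradient, 20 min).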

[1] = target: T2, BC2T W10H library peptide (human)
T2 construct: also called BC2TW10X: H
T2 peptide: Ac-PDRKAAVSHHQQ-NH2
Method in brief: as §1

[2] = target: T3, BC2T H9(I/L) library peptide, version 2 (N-terminal acetyl, C-terminal amide)
T3 construct: Ile and Leu versions are isobaric; two versions resolved but not assigned; also called I/L2
Method in brief: as §1

BC2T S8M library peptide = target: T4, BC2T S8M library peptide (human)
T4 construct: also called BC2TS8X: M
T4 peptide: Ac-PDRKAAVMHWQQ-NH2
Method in brief: as §1

BC2T S8H library peptide = target: T5, BC2T S8H library peptide (human)
T5 construct: also called BC2TS8X: H
T5 peptide: Ac-PDRKAAVHHWQQ-NH2
Method in brief: as §1

[3] = target: T6, BC2T Q12E library peptide (human)
T6 peptide: Ac-PDRKAAVSHWQE-NH2
Method in brief: as §1

[4] = target: T7, BC2T W10Q library peptide (human)
T7 construct: also called BC2TW10X: Q
T7 peptide: Ac-PDRKAAVSHQQQ-NH2
Method in brief: as §1

[5] = target: T8, BC2T S8(I/L) library peptide, version 1 (N-terminal acetyl, C-terminal amide)
T8 construct: Ile and Leu versions are isobaric; two versions resolved but not assigned; also called BC2TS8X: I/L1
Method in brief: as §1

[6] = target: T9, BC2T Q12P library peptide (human)
T9 peptide: Ac-PDRKAAVSHWQP-NH2
Method in brief: as §1

[7] = target: T10, BC2T W10G library peptide (human)
T10 construct: also called BC2TW10X: G
T10 peptide: Ac-PDRKAAVSHGQQ-NH2
Method in brief: as §1

[8] = target: T11, BC2T Q12A library peptide (human)
T11 peptide: Ac-PDRKAAVSHWQA-NH2
Method in brief: as §1

BC2T H9R library peptide = target: T12, BC2T H9R library peptide (human)
T12 peptide: Ac-PDRKAAVSRWQQ-NH2
Method in brief: as §1

[9] = target: T13, BC2T Q11(I/L) library peptide, version 2 (N-terminal acetyl, C-terminal amide)
T13 construct: Ile and Leu versions are isobaric; two versions resolved but not assigned; also called I/L2
Method in brief: as §1

[10] = target: T14, BC2T Q12N library peptide (human)
T14 peptide: Ac-PDRKAAVSHWQN-NH2
Method in brief: as §1

BC2T S8R library peptide = target: T15, BC2T S8R library peptide (human)
T15 construct: also called BC2TS8X: R
T15 peptide: Ac-PDRKAAVRHWQQ-NH2
Method in brief: as §1

[11] = target: T16, BC2T W10F library peptide (human)
T16 construct: also called BC2TW10X: F
T16 peptide: Ac-PDRKAAVSHFQQ-NH2
Method in brief: as §1

[12] = target: T17, BC2T Q11N library peptide (human)
T17 peptide: Ac-PDRKAAVSHWNQ-NH2
Method in brief: as §1

[13] = target: T18, BC2T Q12R library peptide (human)
T18 peptide: Ac-PDRKAAVSHWQR-NH2
Method in brief: as §1

BC2T S8G library peptide = target: T19, BC2T S8G library peptide (human)
T19 construct: also called BC2TS8X: G
T19 peptide: Ac-PDRKAAVGHWQQ-NH2
Method in brief: as §1

B1: BC2-Nb(R106E) (VHH)
VHH: QVQLVESGGGLVQPGGSLTLSCTASGFTLDHYDIGWFRQAPGKEREGVSCINNSDDDTYYADSVKGRFTIFMDNAKDTVYLQMNSLKPEDTAIYYCAEARGCKRGEYEYDFWGQGTQVTVSS
notes: Headlock mutant; immobilized on beads in the library pulldown
ratio (BC2T H9F library peptide): 0.2 | ratio [1]: 1.2 | ratio [2]: 0.2 | ratio (BC2T S8M library peptide): 1 | ratio (BC2T S8H library peptide): 0.9 | ratio [3]: 0.6 | ratio [4]: 1.2 | ratio [5]: 0.5 | ratio [6]: 0.1 | ratio [7]: 1.2 | ratio [8]: 0.1 | ratio (BC2T H9R library peptide): 0.1 | ratio [9]: 0.4 | ratio [10]: 0.1 | ratio (BC2T S8R library peptide): 0.9 | ratio [11]: 1 | ratio [12]: 0.2 | ratio [13]: 0 | ratio (BC2T S8G library peptide): 0.8
